Where two headings read alike, the source gives them in different places.

These results are taken from US8008456B2, “Compositions containing, methods involving, and uses of non-natural amino acids and polypeptides” (Ambrx, Inc., priority 2004, dated 2011).

Data set [1] can be described thus: Pharmacokinetic studies, single s.c. dose in rats, plasma growth hormone ELISA. The data set is classed as in vivo. The settings on record: single-dose 1 mg/kg bolus s.c., normal male Sprague-Dawley rats; average (+/- standard deviation). As to the method:
Pharmacokinetic properties of PEG-modified growth hormone compounds were compared to each other and to nonPEGylated growth hormone in male Sprague-Dawley rats (261-425 g) obtained from Charles River Laboratories. Catheters were surgically installed into the carotid artery for blood collection. Following successful catheter installation, animals were assigned to treatment groups (three to six per group) prior to dosing. Animals were dosed subcutaneously with 1 mg/kg of compound in a dose volume of 0.41-0.55 ml/kg. Blood samples were collected at various time points via the indwelling catheter and into EDTA-coated microfuge tubes. Plasma was collected after centrifugation, and stored at −80° C. until analysis. Compound concentrations were measured using antibody sandwich growth hormone ELISA kits from either BioSource International (Camarillo, Calif.) or Diagnostic Systems Laboratories (Webster, Tex.). Concentrations were calculated using standards corresponding to the analog that was dosed. Pharmacokinetic parameters were estimated using the modeling program WinNonlin (Pharsight, version 4.1). Noncompartmental analysis with linear-up/log-down trapezoidal integration was used, and concentration data was uniformly weighted.
Plasma concentrations were obtained at regular intervals following a single subcutaneous dose in rats. […] Plasma samples were taken over the regular time intervals and assayed for injected compound as described. […] Concentration vs time curves were evaluated by noncompartmental analysis (Pharsight, version 4.1). Values shown are averages (+/−standard deviation). Cmax: maximum concentration; terminal t1/2: terminal half-life; AUC0->inf: area under the concentration-time curve extrapolated to infinity; MRT: mean residence time; Cl/f: apparent total, plasma clearance; Vz/f: apparent volume of distribution during terminal phase.
For orientation: An ELISA detects its analyte on a solid surface through an enzyme-linked reagent.

Data set [2] is described as follows: Pharmacodynamic studies, bodyweight gain in hypophysectomized rats. As to conditions: s.c., compared with 30 KPEG-pAF92(his)hGH, p<0.0005. Format: in vivo, Hypophysectomized male Sprague-Dawley rats. The protocol: Hypophysectomized male Sprague-Dawley rats were obtained from Charles River Laboratories. Pituitaries were surgically removed at 3-4 weeks of age. Animals were allowed to acclimate for a period of three weeks, during which time bodyweight was monitored. Animals with a bodyweight gain of 0-8 g over a period of seven days before the start of the study were included and randomized to treatment groups. Rats were administered either a bolus dose or daily dose subcutaneously. Throughout the study rats were daily and sequentially weighed, anesthetized, bled, and dosed (when applicable). Blood was collected from the orbital sinus using a heparinized capillary tube and placed into an EDTA coated microfuge tube. Plasma was isolated by centrifugation and stored at −80° C. until analysis. The mean (+/−S.D.) plasma concentrations were plotted versus time intervals.
The peptide IGF-1 is a member of the family of somatomedins or insulin-like growth factors. IGF-1 mediates many of the growth-promoting effects of growth hormone. IGF-1 concentrations were measured using a competitive binding enzyme immunoassay kit against the provided rat/mouse IGF-1 standards (Diagnostic Systems Laboratories). Hypophysectomized rats. Rats (n=5-7 per group) were given either a single dose or daily dose subcutaneously. Animals were sequentially weighed, anesthetized, bled, and dosed (when applicable) daily.

Data set [3] can be described thus: Intracellular concentration of non-natural amino acids (cellular uptake). The data set is classed as in vitro ADME. The source says: Non-natural amino acid uptake by a eukaryotic cell is one issue that is typically considered when designing and selecting non-natural amino acids, including but not limited to, for incorporation into a protein. […] Natural amino acids are taken up into the eukaryotic cell via a collection of protein-based transport systems. A rapid screen can be done which assesses which non-natural amino acids, if any, are taken up by cells (examples 15 & 16 herein illustrate non-limiting examples of tests which can be done on non-natural amino acids). See, e.g., the toxicity assays in, e.g., the U.S. Patent Publication No. 2004/198637 entitled “Protein Arrays,” which is herein incorporated by reference in its entirety, and Liu, D. R. & Schultz, P. G. (1999) Progress toward the evolution of an organism with an expanded genetic code. PNAS United States 96:4780-4785. Although uptake is easily analyzed with various assays, an alternative to designing non-natural amino acids that are amenable to cellular uptake pathways is to provide biosynthetic pathways to create amino acids in vivo.
(§1) This example provides results of four tests that were conducted on certain illustrative non-natural amino acids as an aid for predicting their properties for incorporation into non-natural amino acid polypeptides.

Data set [4] has as its system aminoacyl-tRNA synthetase (RS). The data set is described as follows: RS test. As to the method:
as §1

The nature of data set [5]: Oxime stability pH 4-8. The data set is classed as physicochemical. As to the method: as §1

As for “30KPEG-pAF35(his)hGH: "hGH polypeptides comprising p-acetyl-phenylalanine covalently-linked to 30 kDa PEG at positions 35 and 92"”, in data set [1], the “AUC0->inf” value is 39,918 (±22,683) ng × hr/ml, the Cl/f was 35 (±27) ml/hr/kg, the Cmax is on record as 1,885 (±1,011) ng/ml and the MRT was 19.16 (±4.00) h. Further, the “Terminal t1/2” value in data set [1] is on record as 4.85 (±0.80) h. The “bodyweight gain at day 9” value in data set [2] is reported as “greater weight gain”.
For the molecule `CC(=O)c1ccc(C[C@H](N)C(=O)O)cc1`, the “Intracellular Concentration” value in data set [3] is 600 µM. In addition, in data set [4], the RS test entry was “✓”.
As for “30KPEG-pAF145(his)hGH: "His-tagged hGH polypeptide comprising non-natural amino acid p-acetyl-phenylalanine covalently linked to 30 kDa PEG at each of six different positions"”, in data set [1], the “AUC0->inf” value is listed as 13,162 (±6,726) ng × hr/ml, the Cl/f is listed as 88 (±29) ml/hr/kg, the Cmax is listed as 634 (±256) ng/ml and the MRT is reported as 17.82 (±0.56) h. In addition, in data set [1], the “Terminal t1/2” value is listed as 5.87 (±0.09) h.
`CC(=O)CC(=O)c1ccc(C[C@H](N)C(=O)O)cc1`: the RS test result in data set [4] was “Meta- bolized”.
Take `CC(=O)N/N=C/c1ccc(C[C@H](N)C(=O)O)cc1`: in data set [3], the “Intracellular Concentration” value was 30 µM. Further, in data set [4], the RS test result is reported as “✓”.
As for “30KPEG-pAF143(his)hGH: "His-tagged hGH polypeptide comprising non-natural amino acid p-acetyl-phenylalanine covalently linked to 30 kDa PEG at each of six different positions"”, in data set [1], the “AUC0->inf” value is listed as 17,494 (±3,654) ng × hr/ml, the Cl/f was 59 (±11) ml/hr/kg, the Cmax is reported as 803 (±149) ng/ml and the MRT is listed as 18.83 (±1.59) h. Moreover, the “Terminal t1/2” value in data set [1] is 6.02 (±1.43) h.
For the molecule “30KPEG-pAF134(his)hGH: "His-tagged hGH polypeptide comprising non-natural amino acid p-acetyl-phenylalanine covalently linked to 30 kDa PEG at each of six different positions"”, in data set [1], the “AUC0->inf” value was 7,304 (±2,494) ng × hr/ml, the Cl/f is on record as 151 (±63) ml/hr/kg, the Cmax is 566 (±204) ng/ml and the MRT is given as 12.15 (±1.03) h. Further, the “Terminal t1/2” value in data set [1] is 4.36 (±0.33) h.
For `CC(=O)C(=O)Nc1ccc(C[C@H](N)C(=O)O)cc1`, the “Intracellular Concentration” value in data set [3] was 376 µM.
Take `CC(=O)CNC(=O)c1ccc(C[C@H](N)C(=O)O)cc1`: the “Intracellular Concentration” value is 628 µM in data set [3] and “little reduced” in data set [3] (remark in words).
With `CC(=O)COc1ccc(C[C@H](N)C(=O)O)cc1`, the “Intracellular Concentration” value in data set [3] fell in the range of 1000 to 1800 µM.
On the same count and under the same terms, then `CC(=O)C(F)(F)c1ccc(C[C@H](N)C(=O)O)cc1`, with 279 µM.
Turning to `N[C@@H](Cc1ccc2c(c1)NC(=O)C2=O)C(=O)O`, the “Oxime Stability pH 4-8” value in data set [5] is reported as “− −”.
Consider `CC(C)=NOCc1ccc(C[C@H](N)C(=O)O)cc1`, for which, in data set [3], the “Intracellular Concentration” value is 300 µM.
As for `CC(=O)C(=O)c1ccc(C[C@H](N)C(=O)O)cc1`, the “Intracellular Concentration” value in data set [3] (remark in words) is “Reduced [M + 2]”.
Take “30KPEG-pAF131(his)hGH: "His-tagged hGH polypeptide comprising non-natural amino acid p-acetyl-phenylalanine covalently linked to 30 kDa PEG at each of six different positions"”: in data set [1], the “AUC0->inf” value is listed as 6,978 (±2,573) ng × hr/ml, the Cl/f is recorded as 161 (±61) ml/hr/kg, the Cmax is on record as 497 (±187) ng/ml and the MRT was 14.28 (±0.92) h. In data set [1], the “Terminal t1/2” value is reported as 4.41 (±0.27) h.
Regarding `CC(C)=NOCOc1ccc(C[C@H](N)C(=O)O)cc1`, the “Intracellular Concentration” value in data set [3] worked out at 60 µM.
